According to the Human Domainome abundance scans (Beltran et al. 2025):
± gives the uncertainty stated by the source.

B1: Neutrophil cytosol factor 2, residues 456 to 514; numbered along this chain, P19878 (parent)
chain: LKKGSQVEALFSYEATQPEDLEFQEGDIILVLSKVNEEWLEGECKGKVGIFPKVFVEDC

Variants of: B1
Test: abundance fitness (aPCA) (normalised: wild type 0, dead -1); higher = more abundant; growth selection in yeast, the domain comes from the species named
Conditions: Homo sapiens

Variant | abundance fitness
V35L | -0.096 ± 0.089
E25S | -0.239 ± 0.092
E14M | -0.483 ± 0.33
L10E | -0.667 ± 0.47
K47F | -0.241 ± 0.1
L32N | 0.304 ± 0.095
K3W | -0.781 ± 0.47
L32E | -0.299 ± 0.19
K47G | -0.511 ± 0.13
E22I | -0.795 ± 0.26
F11R | 0.145 ± 0.15
G49P | -0.722 ± 0.3
K3L | -0.337 ± 0.14
G42N | -0.484 ± 0.15
L21C | -0.585 ± 0.14
G26I | -0.807 ± 0.23
P18G | -0.613 ± 0.14
A9I | -0.533 ± 0.33
K53W | -0.808 ± 0.46
V35H | -0.806 ± 0.23
I29A | -0.53 ± 0.15
S33D | 0.4 ± 0.072
L40I | -0.183 ± 0.12
Y13I | -0.487 ± 0.1

Variant | abundance fitness
Q17F | -0.793 ± 0.2
I28K | 0.638 ± 0.15
L21V | -0.225 ± 0.11
F11W | -0.392 ± 0.3
Q17T | 0.2 ± 0.1
L10V | -0.609 ± 0.2
G46V | -0.585 ± 0.15
G49E | -0.63 ± 0.38
N36P | -1.03 ± 0.29
E8N | 0.524 ± 0.31
V48A | 0.008 ± 0.11
Q24T | -0.257 ± 0.14
E22D | -0.602 ± 0.16
L1N | -0.024 ± 0.49
Q17N | -0.093 ± 0.11
K34H | 0.059 ± 0.12
L1M | 0.035 ± 0.27
L10W | -0.92 ± 0.35
Q17M | -0.27 ± 0.36
V48R | 0.68 ± 0.097
S5E | 0.099 ± 0.37
K3C | 0.761 ± 0.34
K45R | 0.012 ± 0.11
K3A | -0.483 ± 0.23

Variant | abundance fitness
F23H | -0.117 ± 0.15
G26S | -0.457 ± 0.098
E38N | -0.131 ± 0.12
I50H | -0.371 ± 0.18
F11E | -0.572 ± 0.41
I50E | -0.58 ± 0.32
E41Y | 0.47 ± 0.079
C44E | -0.865 ± 0.41
L30M | 0.08 ± 0.17
I50Q | -0.659 ± 0.43
K53M | -0.549 ± 0.39
C59I | 0.153 ± 0.15
E43G | -0.152 ± 0.11
C59R | -0.173 ± 0.2
D27T | -0.695 ± 0.29
E14C | -0.301 ± 0.12
K53D | -0.61 ± 0.18
E22H | -0.191 ± 0.22
F23D | -0.527 ± 0.14
S5L | -0.289 ± 0.12
E57M | -0.464 ± 0.21
Y13K | -0.307 ± 0.17
L10M | 0.116 ± 0.33
V56H | -0.624 ± 0.16

Variant | abundance fitness
A15D | -0.73 ± 0.24
E25V | -0.043 ± 0.078
E38G | -0.207 ± 0.098
S5K | 0.309 ± 0.23
G26R | -0.464 ± 0.14
G4D | -0.031 ± 0.22
K34S | -0.37 ± 0.1
E25C | -0.275 ± 0.14
D58P | 0.214 ± 0.17
G46T | -0.904 ± 0.27
N36D | -0.477 ± 0.17
D20G | -0.125 ± 0.092
T16L | -0.076 ± 0.11
F11Y | -0.191 ± 0.24
K34C | -0.242 ± 0.12
E22S | 0.284 ± 0.068
V56Y | -0.574 ± 0.14
S33K | 0.213 ± 0.17
E8G | -0.093 ± 0.28
L40Q | -0.58 ± 0.4
V35R | -0.235 ± 0.096
E38C | -0.702 ± 0.15
E19T | -0.055 ± 0.12
V54L | -0.434 ± 0.13

Variant | abundance fitness
Q6F | 0.714 ± 0.14
G49R | -0.758 ± 0.2
P52F | -0.459 ± 0.18
G4R | -0.535 ± 0.27
E57I | -0.697 ± 0.22
G4A | -0.695 ± 0.29
E14L | -0.231 ± 0.14
S5F | 0.011 ± 0.13
Q24H | -0.035 ± 0.13
E14H | 0.236 ± 0.11
V31N | -0.092 ± 0.092
D27K | -0.365 ± 0.28
E57L | -0.505 ± 0.13
E43I | -0.567 ± 0.13
E57W | -0.033 ± 0.28
I29P | 0.271 ± 0.19
S12K | -0.609 ± 0.3
W39G | -0.414 ± 0.1
W39H | -1.03 ± 0.24
V56Q | -0.581 ± 0.23
K53C | -0.848 ± 0.25
K34I | 0.456 ± 0.08
V54T | 0.18 ± 0.12
C59F | -0.044 ± 0.14

Variant | abundance fitness
F51H | -0.18 ± 0.15
I28Y | -0.546 ± 0.15
L32V | -0.297 ± 0.1
S12E | -0.937 ± 0.47
E8M | 0.684 ± 0.12
Y13N | -0.472 ± 0.11
E43Q | -0.078 ± 0.23
I28Q | 0.146 ± 0.2
E41C | 0.14 ± 0.095
L32H | 0.166 ± 0.1
D20S | -0.528 ± 0.11
N36L | -0.968 ± 0.2
A15W | -0.48 ± 0.27
Q6E | -0.158 ± 0.18
G42T | -0.876 ± 0.24
N36K | 0.093 ± 0.23
F51C | -0.247 ± 0.11
V48S | -0.355 ± 0.13
K34D | -0.026 ± 0.11
E37V | 0.085 ± 0.099
F51I | -0.506 ± 0.14
K34T | 0.4 ± 0.097
E19F | -0.676 ± 0.14
F51M | 0.006 ± 0.21

Variant | abundance fitness
A9G | -0.439 ± 0.2
A9E | -0.361 ± 0.24
K45Y | -0.505 ± 0.16
E41A | -0.394 ± 0.14
K47N | -0.271 ± 0.1
L30Q | 0.5 ± 0.16
K34E | 0.466 ± 0.14
L32A | -0.297 ± 0.14
E38P | -0.496 ± 0.19
V48E | -0.974 ± 0.44
I29R | -0.427 ± 0.13
K45G | -0.61 ± 0.16
K53T | -0.707 ± 0.24
K2R | 0.002 ± 0.13
Q24S | 0.286 ± 0.072
F55C | 0.597 ± 0.082
E37D | 0.069 ± 0.12
T16K | 0.397 ± 0.46
I28D | 0.056 ± 0.13
F11A | 0.567 ± 0.18
E19M | -0.463 ± 0.22
K47Y | -0.742 ± 0.14
S5Y | 0.219 ± 0.19
